Measured values published in publication PMC2640967.

Target: Vps24 (full-length, two-hybrid fusion) (A. nidulans)
Experiment: two-hybrid

Molecule	fold lower β-galactosidase activity than with DidB^Did2 [fold]	fold β-galactosidase activity with Vps24 over that with DidB [fold]
Vps4 (two-hybrid fusion) (enzyme)	30	–
PalB-(1–130) prey (two-hybrid fusion) (domain or fragment) MSRTSSAPSQKSLISRALKAERDVITASSQSQALDAAIDAAEHYMKALALTSSSKDRNVLDAKCKEWLTRAEKIKGSEDWRSVAQSRRSRLRTPASTRKLTTREDIILLQGAKLNGFIFPPWKAEPSLTE	–	10
